From US20240084003A1 (SIMCERE ZAIMING PHARMACEUTICAL, published 2024) come the findings set out here.

Substitutions are numbered along the chain they refer to.

The labels stand for the following.
T1: human CD22-ECD-His protein (human, UniProt P20273 20-687)
T1 construct: Made in house in HEK293E; also called hCD22-ECD-His; recombinant human CD22-ECD His protein; not shown: His tag
T1 sequence: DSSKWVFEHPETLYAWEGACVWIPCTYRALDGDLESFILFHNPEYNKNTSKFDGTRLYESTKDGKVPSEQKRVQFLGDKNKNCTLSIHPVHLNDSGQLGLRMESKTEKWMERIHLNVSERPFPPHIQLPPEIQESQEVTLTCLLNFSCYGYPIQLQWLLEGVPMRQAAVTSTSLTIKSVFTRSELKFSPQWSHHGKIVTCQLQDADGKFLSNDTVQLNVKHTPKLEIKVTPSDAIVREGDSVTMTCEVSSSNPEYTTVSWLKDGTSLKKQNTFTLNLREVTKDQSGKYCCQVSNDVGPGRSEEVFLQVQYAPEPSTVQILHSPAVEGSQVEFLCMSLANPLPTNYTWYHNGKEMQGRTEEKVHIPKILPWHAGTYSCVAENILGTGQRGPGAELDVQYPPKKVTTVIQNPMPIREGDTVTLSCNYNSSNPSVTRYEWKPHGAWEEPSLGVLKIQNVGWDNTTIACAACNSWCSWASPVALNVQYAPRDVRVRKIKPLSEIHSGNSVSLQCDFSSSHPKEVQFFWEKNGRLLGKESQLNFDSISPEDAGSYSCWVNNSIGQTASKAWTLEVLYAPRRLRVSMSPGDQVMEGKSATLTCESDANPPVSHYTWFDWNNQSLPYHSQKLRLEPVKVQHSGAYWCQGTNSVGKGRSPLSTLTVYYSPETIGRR

T2: monkey CD22 on HEK293T-monkey CD22 cells (monkey)
T2 construct: full-length entry expressed on stably transfected HEK293T cells
T2 chain: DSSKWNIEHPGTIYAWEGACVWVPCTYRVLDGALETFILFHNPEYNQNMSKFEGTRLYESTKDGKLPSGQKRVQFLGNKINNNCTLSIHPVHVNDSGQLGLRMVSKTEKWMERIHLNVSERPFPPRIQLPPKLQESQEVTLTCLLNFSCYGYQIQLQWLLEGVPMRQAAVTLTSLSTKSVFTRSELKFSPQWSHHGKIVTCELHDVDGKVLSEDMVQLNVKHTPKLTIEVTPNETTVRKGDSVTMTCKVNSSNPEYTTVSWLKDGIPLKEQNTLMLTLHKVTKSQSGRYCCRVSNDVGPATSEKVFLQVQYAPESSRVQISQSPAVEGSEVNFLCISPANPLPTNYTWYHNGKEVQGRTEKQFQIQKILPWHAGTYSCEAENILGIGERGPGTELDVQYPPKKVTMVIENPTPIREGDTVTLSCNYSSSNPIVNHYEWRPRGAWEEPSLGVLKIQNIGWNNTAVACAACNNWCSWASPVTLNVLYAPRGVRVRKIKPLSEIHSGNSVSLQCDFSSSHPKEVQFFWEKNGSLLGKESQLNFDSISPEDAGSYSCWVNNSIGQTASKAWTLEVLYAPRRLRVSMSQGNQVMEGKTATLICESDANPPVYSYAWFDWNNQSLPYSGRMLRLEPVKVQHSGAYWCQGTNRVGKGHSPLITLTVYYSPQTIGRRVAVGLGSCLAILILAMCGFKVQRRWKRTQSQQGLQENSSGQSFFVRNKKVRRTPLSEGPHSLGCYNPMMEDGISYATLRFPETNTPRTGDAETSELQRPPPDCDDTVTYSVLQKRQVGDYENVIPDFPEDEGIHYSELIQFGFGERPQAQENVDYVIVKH

B1: F2.55.1 (antibody, human IgG1, lambda, V domains shown)
VH: QVTLKESGPGILQPSQTLSLTCSFSGFSLSTFPLGVGWIRQPSGKGLEWLAHVWWNDDDYYNPALKSRLTISKDTSNTRVFLSVASVDTAETATYYCARLNWDRWYFDVWGTGTTVTVSS
VL: QLVLTQSSSASFSLGASAKLTCTLSSQHSAYTVEWYQQQPLKPPKYVMELKKDGSHSTGDGIPDRFSGSSSGADRYLSISNIQPEDEAIYICGVGDTVKEQFVFGGGTKVTVLG
notes: Human-murine chimeric IgG1, lambda
B2: HA22-hIgG1 (antibody, V domains shown)
VH: EVQLVESGGGLVKPGGSLKLSCAASGFAFSIYDMSWVRQTPEKCLEWVAYISSGGGTTYYPDTVKGRFTISRDNAKNTLYLQMSSLKSEDTAMYYCARHSGYGTHWGVLFAYWGQGTLVTVSA
VL: DIQMTQTTSSLSASLGDRVTISCRASQDISNYLNWYQQKPDGTVKLLIYYTSILHSGVPSRFSGSGSGTDYSLTISNLEQEDFATYFCQQGNTLPWTFGCGTKLEIKR
B3: F1.120.15 (antibody, human IgG1, kappa, V domains shown)
VH: QVQLQQSGPELVKPGASVKISCKASGNAFSNSWMNWVKQRPGKGLEWIGRVYSEDGDTQYNGKFRDKATLTADRSTSTAYMQLSSLTSEDSAVYFCARWLIYYGTYGAMDYWGQGTSVTVSS
VL: B2 VL with S30N, Q37H, Y50F, I53R, L54P, H55Y, F83I, C100G
notes: Human-murine chimeric IgG1, kappa
B4: F1.105.11 (antibody, human IgG1, kappa, V domains shown)
VH: EVQLQQSGPVLVKPGASVKMSCKASGYTFSDYFMNWVKQSHGKSLEWIGIINSYSGGTSYNQKFKGKATLTVDKSSSTAYMELNSLTSEDSAVYYCARWMDYWGQGTSVTVSS
VL: DVQITQSPSYLAASPGETITINCRTSESISKHLAWYQEKPGKTNKLLIYSGSTLQSGIPSRFSGSGSGTDFTLTISSLEPEDFAMYYCQQHNEYPWTFGGGTKLEIKR
notes: as for B3
B5: F1.224.1 (antibody, human IgG1, kappa, V domains shown)
VH: EVLLHQSGPELVKPGASVKISCKASGYTFTDFNMDWVRQRHGQSLEWIGDVNPNNGGTIYNQKFKGKATLTVDKSSSTVYMDLRSLTSDDTAVYYCVRLGTSDYGEAWFISWGQGTVVTVSA
VL: DIVLTQSPASLAVSLGQRATISCRASQSVSTPRYSFMHWYQQKPGQPPKLLIKYASNLESGFPARFTGSGSGTDFTLNIHPVEEEDTAAYYCQQSWAIPWTFGGGTKLEIKR
notes: as for B3
B6: F2.205.9 (antibody, human IgG1, lambda, V domains shown)
VH: QVTLKESGPGILQPSQTLSLTCSFSGFSLSTSGMGVGWIRQPSGKGLEWLAHIWWDDDEYYNPALKSRLTISKDTSKNQVFLKIANVDTADTATYYCARISIPYGYYDWFFDVWGTGTTVTVSA
VL: QAVVTQESALTTSPGETVTLTCRSSTGAVTTRNYANWVQEKPDHLFTGLIGGTNNRAPGVPARFSGSLIGDKAALTITGAQTEDEAIYFCALWYSNHFIFGSGTKVTVLG
notes: as for B1
B7: F1.245.2 (antibody, human IgG1, kappa, V domains shown)
VH: EVQLQQSGAELVKPGASVKLSCTGSGFNIKDYYIHWVKQRTEQGLEWMGRIDPEDGETEYAPKFQDEATITSDTSSNTAYLQLSSLTYEDTAVYYCAREAAGYFYRGSSYGYFDVWGTGTTVTVSS
VL: DFQMTQTTSFLSASLGDRVTISCSASQDISNYLNWYQQKPDGTVKLLIYYTSSLHSGVPSRFSGSGSGTDYSLTISNLEPEDIATYYCQQYSMLPYTFGGGTKLEMER
notes: as for B3
B8: F1.280.1 (antibody, human IgG1, kappa, V domains shown)
VH: QIQLVQSGPELKKPGETVKISCKASGYTFTTYGMSWVKQTPGKGLTWMGWINTDSGVPTYADDFKRRFAFSLEASATTAYLQINNLKNEDTATYFCARGGPDYWGQGTTLTVSS
VL: DILLTQSPATLSVTPGETVSLSCRASQSIYKNLHWYHQKSHRSPRLLIKYASDSISGIPSRFTGSGSGTNFTLSINSVKPEDEGIYYCLQGYIVPLTFGAGTKLELKR
notes: as for B3
B9: F1.17.1 (antibody, human IgG1, kappa, V domains shown)
VH: QVQLKESGPGLVAPSQSLSITCTVSGFSLSRYTVHWVRQPPGKGLEWLGMIWGGGSTDYNSALKSRLSISKDNSKSQVFLKMNSLQTDDTAMYYCARPHDFDAGGFAYWGQGTLVTVSA
VL: QIVLTQSPAILSTSPGEKVTMTCSASSRVNYMYWYQQKPGSSPRLLIYDTSNLASGVPVRFSGSGSGTSYSLTISRMEAEDAATYYCQQWTSYPLTFGAGTKLELKR
notes: as for B3
B10: F1.200.11 (antibody, human IgG1, kappa, V domains shown)
VH: QNQLVQSGPELKKPGETVKISCKASGYTFTTAGMQWVQKMPGKGFKWIGWINTLSGEPKYAEDFKGRFAFSLETSATTAYLQISNLKNEDTATYFCARAYYSNLYWYFDVWGTGTTVTVSS
VL: DIVMTQSQKFMSTTVGDRVTITCKASQNVVTAVAWYQQKPGQSPKVLIYSASNRYSGVPDRFTGSGSGTDFTLTISNMHSEDLANYFCHQYSSYPFTFGSGTKLEIKR
notes: as for B3
B11: F1.216.2 (antibody, human IgG1, kappa, V domains shown)
VH: QVQLQQSGPEVVRPGASVKISCKASGYAFSSSWMNWMKQRPGKALEWIGRIYPGDGDTNYSGEFKVKATLTADKSSSTAYMQLSSLTSEDSAVYFCAREGSYYSNPWYFDYWGQGTTLTVSS
VL: DVLVTQTPLSLPVSLGDQASISCRSSQSIVQSNGDTYLEWYLQKPGQSPKLLIYKVSNRFSGVPDRFSGSGSGTDFTLKISRVEAEDLGVYYCFQGSHVPFTFGSGTKLEIKR
notes: as for B3
B12: F1.62.10 (antibody, human IgG1, kappa, V domains shown)
VH: QVQLQQSGPELVKPGASVKISCKASGYEFSSIWMNWVKQRPGEGLEWIGRIFPGDGEINYNEKFKGKATLTADRSSTTAYMQLSSLTSEDSAVYFCAGWRIYYGTYGAMDYWGQGTSVTVSS
VL: B2 VL with T7I, S30G, I53R, G68R, E79Q, F83I, C100G
notes: human-murine chimeric IgG1 kappa
B13: HA22-hIgG1 (antibody, V domains shown)
VH: B2 VH
VL: B2 VL

The first assay deals with T1, human CD22-ECD-His protein. The experiment in a line: ELISA, Ab 10.00 nM. A digest of the protocol:
(§1)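 Human CD22-ECD-His is adsorbed overnight at 4 °C (2 μg/mL) and blocked with 2% BSA in PBS for 2 h. Chimeric antibody binding proceeds 2 h at 37 °C, followed by HRP-labeled secondary antibody under identical conditions and TMB detection.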
B1: the OD450 worked out at 2.16 OD450.

For B2, the OD450 came to 2.61 OD450.

Turning to B3, the OD450 came to 2.61 OD450.

B4 came in with an OD450 of 2.68 OD450.

The molecule B5 registered an OD450 of 2.43 OD450.

In the case of B6, the OD450 is 2.11 OD450.

B7 registered an OD450 of 2.54 OD450.

With B8, the OD450 is 2.3 OD450.

The molecule B9 had an OD450 of 2.21 OD450.

In turn, B10 came in with an OD450 of 2.33 OD450.

B11 gave an OD450 of 2.53 OD450.

The target of the next assay is T1, human CD22-ECD-His protein. The experiment in a line: ELISA, Ab 0.01 nM. The method, boiled down:
as §1
In general terms: In an ELISA, binding on a coated surface is turned into a signal by an enzyme label.
Molecule B1 had an OD450 of 1.3 OD450.

With B2, the OD450 was 2.12 OD450.

Regarding B3, the OD450 turned out to be 2.28 OD450.

The molecule B4 registered an OD450 of 1.93 OD450.

Regarding B5, the OD450 is 2.21 OD450.

In turn, B6 returned an OD450 of 1.48 OD450.

B7: the OD450 was 2.3 OD450.

B8: the OD450 is 1.92 OD450.

Turning to B9, the OD450 was found to be 1.85 OD450.

With B10, the OD450 worked out at 2 OD450.

Regarding B11, the OD450 came to 2.48 OD450.

The next assay has as its target T2, monkey CD22 on HEK293T-monkey CD22 cells. The experiment in a line: FACS, HEK293T-monkey CD22 cells. The protocol:
For suspension cell Raji, the medium supernatant was directly centrifuged and discarded, and the cell pellet was washed 2 times with PBS. After counting the cells in the previous step, the cell pellet was resuspended with [PBS+2% (w/w) BSA] blocking solution to 2×10⁶ cells/ml, and added to a 96-well FACS reaction plate at 50 μl/well, and then the chimeric antibody test sample was added at 50 μl/well, and incubated on ice for 2 hours. The mixture was centrifuged and washed 3 times with PBS buffer, Alexa Flour 488-labeled secondary antibody (purchased from Invitrogen, catalog number: A-11013) was added at 50 μl/well, and incubated on ice for 1 hour. The obtained mixture was centrifuged and washed 5 times with PBS, and FACS (FACS Canto™, purchased from BD Company) was used for detection and result analysis. Data analysis was performed by software (CellQuest) to obtain the mean fluorescence density (MFI)of the cells. And then software (GraphPad Prism8) was used for analysis, data fitting, and EC50 value calculation. […] The same method was used to detect the binding of the chimeric antibodies to endogenous CD22-negative cell MoLT4 cells (purchased from ATCC, CRL-1582) and CHO-K1 cells.
HEK293T-monkey CD22 cells were subjected to FACS detection and data analysis according to the method in Example 5.2.
For orientation: Flow cytometry measures light scatter and fluorescence of single cells or particles in a stream.
Broadly, the EC50 is the concentration that produces a half-maximal response. As to B12, the response was half-maximal at 41.1 nM (EC50) and the “Maximum mean fluorescence intensity” value is 4330 MFI.

Take B13: the EC50 was 0.91 nM and the “Maximum mean fluorescence intensity” value came out at 17100 MFI.
